Experimental data from US6825005B2, “Methods and reagents to regulate apoptosis” (President and Fellows of Harvard College, priority 2000, dated 2004).

B1: hTid-1S: 40 kDa mitochondrial matrix splice variant encoded by human TID1, SEQ ID NO: 9; antiapoptotic (protein, listed as Homo sapiens)
chain: MAARCSTRWLLVVVGTPRLPAISGRGARPPREGVVGAWLSRKLSVPAFASSLTSCGPRALLTLRPGVSLTGTKHNPFICTASFHTSAPLAKEDYYQILGVPRNASQKEIKKAYYQLAKKYHPDTNKDDPKAKEKFSQLAEAYEVLSDEVKRKQYDAYGSAGFDPGASGSQHSYWKGGPTVDPEELFRKIFGEFSSSSFGDFQTVFDQPQEYFMELTFNQAAKGVNKEFTVNIMDTCERCNGKGNEPGTKVQHCHYCGGSGMETINTGPFVMRSTCRRCGGRGSIIISPCVVCRGAGQAKQKKRVMIPVPAGVEDGQTVRMPVGKREIFITFRVQKSPVFRRDGADIHSDLFISIAQALLGGTARAQGLYETINVTIPPGTQTDQKIRMGGKGIPRINSYGYGDHYIHIKIRVPKRLTSRQQSLILSYAEDETDVEGTVNGVTLTSSGKRSTGN
B2: hTid-1L: 43 kDa mitochondrial matrix splice variant encoded by human TID1, SEQ ID NO: 8; proapoptotic (protein, listed as Homo sapiens)
chain: MAARCSTRWLLVVVGTPRLPAISGRGARPPREGVVGAWLSRKLSVPAFASSLTSCGPRALLTLRPGVSLTGTKHNPFICTASFHTSAPLAKEDYYQILGVPRNASQKEIKKAYYQLAKKYHPDTNKDDPKAKEKFSQLAEAYEVLSDEVKRKQYDAYGSAGFDPGASGSQHSYWKGGPTVDPEELFRKIFGEFSSSSFGDFQTVFDQPQEYFMELTFNQAAKGVNKEFTVNIMDTCERCNGKGNEPGTKVQHCHYCGGSGMETINTGPFVMRSTCRRCGGRGSIIISPCVVCRGAGQAKQKKRVMIPVPAGVEDGQTVRMPVGKREIFITFRVQKSPVFRRDGADIHSDLFISIAQALLGGTARAQGLYETINVTIPPGTQTDQKIRMGGKGIPRINSYGYGDHYIHIKIRVPKRLTSRQQSLILSYAEDETDVEGTVNGVTLTSSGGSTMDSSAGSKARREAGEDEEGFLSKLKKMFTS

Columns and labels:
U2OS cells = test: Apoptosis assay, Hoechst-stained apoptotic nuclei counted in inducible U2OS cells; type: cell-based, human; conditions: cell line expressing the protein, treated with MMC or TNF-alpha
Method: Cell Lines and Reagents. U20S Cells were Cultured in DMEM Containing 10% Fetal Calf serum supplemented with 50 units/ml penicillin and 50 μg/ml streptomycin. Inducible hTid-1L, hTid-1S, H121QL, and H121QS were expressed in U20S cells from a plasmid containing a muristerone-inducible promoter (Invitrogen). Inducible cells lines were cultured under constant selection with 50 μg/ml Zeocin (Invitrogen) and 300 μg/ml G418. Gene expression was induced with 1 μM muristerone (Invitrogen) for 24 hours. SAOS-2 cells were cultured in DMEM containing 15% fetal calf serum and 50 units/ml penicillin and 50 μg/ml streptomycin.
Apoptosis Assays. Inducible U2OS Cells were Induced with 1 μM Muristerone for 24 hours, or went uninduced and were treated with either the indicated concentration of mitomycin c (Sigma) for 24 hours or the indicated concentration of TNF plus 30 μg/ml cycloheximide. Cells were fixed by exposure to methanol vapor for 10 minutes followed by immersion in methanol for at least 10 minutes. Cells were stained with 1 μg/ml Hoechst 33258 and 0.1% lowfat milk (Carnation) for 7 minutes and rinsed in water. Apoptotic nuclei were counted by using fluorescence microscopy. For transient-transfection experiments, U2OS cells were transfected by the calcium phosphate technique by using BES-buffered saline. […] Cells expressing green fluorescent protein were counted and scored for apoptotic nuclei.

caspase 3 = test: Pro-caspase 3 cleavage and activation, immunoblot and fluorogenic activity assay, U2OS cells treated with TNF; type: cell-based, human; conditions: inducible U2OS lines, TNF treatment
Method: Caspase Activation and Cytochrome c Release Assays. U2OS Cells were Induced for 24 hours with 1 μM muristerone and treated for the indicated time with 10 ng/ml TNF plus 30 μg/ml cycloheximide. Cells were trypsinized, washed in PBS, and resuspended in lysis buffer (1% NP40/50 mM Tris HCl/150 mM NaCl, pH 8.0/1 μg/ml each aprotinin and leupeptin/0.01% PMSF), and protein concentration was analyzed by using the Bradford method (Bio-Rad). Sixty micrograms of total cell lysate was then analyzed by Western blot analysis using mAb specific for pro-caspase 3 and pro-caspase 8.
Caspase activity was measured by using fluorescent caspase 8 and caspase 3 activity assays (CLONTECH). Inducible U20S cells were induced with muristerone for 24 hours and treated with 10 ng/ml TNF plus 30 μg/ml cycloheximide for 4.5 hours. Cells were trypsinized, combined with apoptotic cells in the tissue-culture media, counted, and assayed for caspase activity by the manufacturer's protocol on a fluorescent plate reader (excitiation 380 mn, emission 530 nm). For caspase 8 activity, 1×10^6 cells of each line were used, and for caspase 3 activity, 3.5×10^5 cells of each line were used.

[1] = system: cytochrome c release from mitochondria; test: Cytochrome c release assay, immunoblot of cytoplasmic extracts of U2OS cells treated with TNF; type: cell-based, human; conditions: inducible U2OS lines, TNF treatment
Method: For cytochrome c release assays, U2OS cells were induced with muristerone for 24 hours and treated with 10 ng/ml TNF plus 30 μg/ml cycloheximide for 4.5 hours. Cells were then trypsinized, resuspended in sucrose buffer, homogenized in a Teflon tissue homogenizer, and centrifuged at 10,000×g for 10 minutes as described above. Postmitochondrial supernatant (100 μg of protein) was then analyzed by Western blot analysis for the presence of cytoplasmic cytochrome c. Cytochrome c levels were quantitated by using NIH IMAGE software.

mtHsp70 = biological target: T1, mtHsp70 (Homo sapiens, UniProt P38646); test: Coimmunoprecipitation-immunoblot with mtHsp70; type: binding; conditions: endogenous proteins, U2OS cells
T1 construct: immunoprecipitate endogenous hTid-1L and hTid-1S in complex with mtHsp70 from human U2OS cells; endogenous in cells
T1 sequence (P38646 47-679): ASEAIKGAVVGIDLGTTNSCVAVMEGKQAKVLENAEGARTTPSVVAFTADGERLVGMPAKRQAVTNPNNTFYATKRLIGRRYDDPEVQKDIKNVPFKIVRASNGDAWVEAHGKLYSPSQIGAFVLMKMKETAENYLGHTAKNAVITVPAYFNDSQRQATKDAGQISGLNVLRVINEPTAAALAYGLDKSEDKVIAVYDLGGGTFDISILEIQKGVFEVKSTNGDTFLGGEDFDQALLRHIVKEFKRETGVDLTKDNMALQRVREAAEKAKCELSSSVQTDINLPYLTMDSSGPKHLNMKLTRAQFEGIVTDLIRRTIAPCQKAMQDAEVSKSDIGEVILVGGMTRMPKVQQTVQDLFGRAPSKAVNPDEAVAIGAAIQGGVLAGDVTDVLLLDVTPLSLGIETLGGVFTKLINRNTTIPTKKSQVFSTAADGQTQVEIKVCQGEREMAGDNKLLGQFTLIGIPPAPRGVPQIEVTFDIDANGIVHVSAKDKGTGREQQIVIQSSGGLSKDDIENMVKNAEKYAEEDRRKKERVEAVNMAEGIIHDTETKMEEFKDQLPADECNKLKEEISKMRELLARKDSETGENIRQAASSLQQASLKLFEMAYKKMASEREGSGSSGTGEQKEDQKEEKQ
Method: Immunoprecipitation. One 10-cm Plate of SAOS-2 Cells was Trypsinized, Washed in PBS, and lysed in 1% NP40/150 mM NaCl/50 mM Tris HCl, pH 8.0/1 μg/ml each aprotinin and leupeptin/0.01% PMSF on ice. The sample was split into four fractions and incubated for 1 hour with either anti-hTid-1, anti-mtHsp70, or anti-Hsc70 mAbs. Immune complexes were collected on protein G agarose beads (GIBCO) and washed three times in 0.1% NP40 lysis buffer. Samples were then separated by SDS/PAGE, transferred to poly(vinylidene difluoride) membrane, and probed with either anti-mtHsp70, anti-Hsc70, or anti-hTid-1 mAbs. Proteins were visualized by ECL (Amersham Pharmacia) by using x-ray film.

| Molecule | Levels of apoptosis relative to control cells (U2OS cells) | Cleavage and activation of pro-caspase 3 relative to control cells (caspase 3) | Cytochrome c released from mitochondria relative to control cells [1] | Interaction with mtHsp70 (coimmunoprecipitation) (mtHsp70) |
| --- | --- | --- | --- | --- |
| B1 | decreased levels of apoptosis | decreased cleavage and activation | release less cytochrome c | interact specifically |
| B2 | markedly increased levels of apoptosis | more efficiently | more cytochrome c is released | interact specifically |
